The source of these data is paper PMC6202051, “The DWORF micropeptide enhances contractility and prevents heart failure in a mouse model of dilated cardiomyopathy” (eLife, 2018).

Test [1] concerns the target mCerulean (Cer)-SERCA2a (UniProt O55143). The experiment in a line: FRET or BRET; progressive acceptor photobleaching of YFP in live transfected AAV-293 cells; donor against acceptor fluorescence, a linear relationship taken as a 1:1 complex.
In test [2] the target is T1, mCerulean (Cer)-SERCA2a (UniProt O55143-2 1-998).
T1 construct: SERCA2a, the predominant cardiac isoform of the sarco(endo)plasmic reticulum Ca2+-ATPase; also called SR Ca2+-ATPase; source: AAV-293 cells, transiently transfected, in live cells
The description is as above. The following applies: partners not purified.

Ends that are not written are not given here. YFP = yellow fluorescent protein

Chain of mCerulean (Cer)-SERCA2a (UniProt O55143) (O55143 other isoform, or with tags, fused parts or gaps): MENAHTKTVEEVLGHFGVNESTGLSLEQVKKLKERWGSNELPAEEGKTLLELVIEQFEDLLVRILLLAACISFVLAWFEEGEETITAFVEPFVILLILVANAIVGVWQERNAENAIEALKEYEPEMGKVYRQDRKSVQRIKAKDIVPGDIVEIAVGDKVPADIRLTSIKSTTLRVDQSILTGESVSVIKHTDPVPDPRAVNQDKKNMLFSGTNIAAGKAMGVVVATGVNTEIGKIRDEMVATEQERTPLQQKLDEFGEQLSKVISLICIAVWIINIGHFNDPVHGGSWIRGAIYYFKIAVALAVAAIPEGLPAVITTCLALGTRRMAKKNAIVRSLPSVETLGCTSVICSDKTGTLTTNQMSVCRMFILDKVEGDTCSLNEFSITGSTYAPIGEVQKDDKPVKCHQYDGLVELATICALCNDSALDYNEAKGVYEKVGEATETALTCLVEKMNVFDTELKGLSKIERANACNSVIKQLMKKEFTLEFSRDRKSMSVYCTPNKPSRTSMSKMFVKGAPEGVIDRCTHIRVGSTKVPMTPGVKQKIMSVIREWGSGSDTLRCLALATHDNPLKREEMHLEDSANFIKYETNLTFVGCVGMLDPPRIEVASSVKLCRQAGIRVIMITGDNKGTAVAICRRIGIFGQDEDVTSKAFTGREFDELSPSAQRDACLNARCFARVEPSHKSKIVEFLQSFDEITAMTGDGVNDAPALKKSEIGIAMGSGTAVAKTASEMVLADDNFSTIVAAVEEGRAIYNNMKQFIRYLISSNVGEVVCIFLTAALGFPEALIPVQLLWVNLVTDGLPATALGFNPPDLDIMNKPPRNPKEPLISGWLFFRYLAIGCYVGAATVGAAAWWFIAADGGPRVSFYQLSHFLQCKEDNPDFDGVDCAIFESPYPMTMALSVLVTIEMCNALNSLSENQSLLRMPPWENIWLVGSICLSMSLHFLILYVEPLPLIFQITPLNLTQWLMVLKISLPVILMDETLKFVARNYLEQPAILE
T1 sequence (O55143 other isoform, or with tags, fused parts or gaps): as above

For “yellow fluorescent protein (YFP)-DWORF (peptide)”, the stoichiometry N with mCerulean (Cer)-SERCA2a [1] is 1.

B1: yellow fluorescent protein (YFP)-PLN (natural protein, UniProt P61014 1-52, looked up)
chain: {YFP}-MEKVQYLTRSAIRRASTIEMPQQARQNLQNLFINFCLILICLLLICIIVMLL
modifications: cysteine pairing not given here
notes: phospholamban (PLN); In the PLN-PLN and PLN-DWORF FRET experiments one partner must have carried the donor (Cer); it may be another species (e.g. canine) in the cited FRET work; also called phospholamban; source: AAV-293 cells, transiently transfected, in live cells
For B1, the “stoichiometry N” value with mCerulean (Cer)-SERCA2a [2] is 1.

A word on the stoichiometry N: it is a count of units in the complex or per binding partner.
